Biological target: Dansyl-calmodulin (dansyl-CaM), purified, P0DP23
Test: other fluorescence titration
Conditions: remark: other sources report otherwise

stoichiometry N: 1
B1: Regulator of G Protein Signaling 14 (RGS14), purified recombinant protein, O08773 1-544 (natural protein)
chain: MPGKPKHLGVPNGRMVLAVSDGELTSTSGSQAQGEGRGSSLSIHSLPSGPSSPFSTDEQPVASWAQSFERLLQDPRGLAYFTEFLKKEFSAENVTFWQACERFQQIPASDTKQLAQEAHNIYHEFLSSQALSPVNIDRQAWLSEEVLAQPRPDMFRAQQLQIFNLMKFDSYARFVKSPLYQECLLAEAEGRPLREPGSSHLGSPDTARKKPKLKPGKSLPLGVEELGQLPLAEGRPLRKSFRREMPGGAVNSALRRESQGSLNSSASLDLGFLAFVSSKSESHRKSLGSGEGESESRPGKYCCVYLPDGTASLALARPGLTIRDMLAGICEKRGLSLPDIKVYLVGKEQKALVLDQDCTVLADQEVRLENRITFQLELVGLERVVRISAKPTKRLQEALQPILAKHGLSLDQVVLHRPGEKQLVDLENLVSSVASQTLVLDTLPDAKTREASSIPPCRSQGCLPRTQTKDSHLPPLSSSLSVEDASGSTGKRQTCDIEGLVELLNRVQSSGAHDQRGLLRKEDLVLPEFLQLPSQRPGSQEAPP
modifications: here or on the partner: dansyl label (position not given)

Source: publication doi:10.1101/247270
